The text below walks through data of US20240166765A1, “INFLAMMATORY DISEASE TREATMENT USING ANTI-TISSUE FACTOR ANTIBODIES” (Iconic Therapeutics LLC, priority 2020, published 2024).

The target in one test is T1, TF:FVIIa (Homo sapiens, UniProt P13726).
T1 construct: host or cells: MDA-MB-231
As to the kind of experiment: FXa conversion assay on MDA-MB-231 cells. The class given is cell-based. As to conditions: concentrations of 25, 50, and 100 nM; Example 26. On the procedure: To evaluate the ability of TF:FVIIa to convert FX into FXa in the presence of human antibodies against TF, 5×10^4 MDA-MB-231 cells (ATCC, Manassas, VA, USA) were plated into tissue culture-treated black 96-well plates (Greiner Bio-One, Monroe, NC, USA). […] Upon reconstitution of the binary TF:FVIIa complex with a final concentration of 20 nM of FVIIa, cells were incubated for 5 min at 37° C.
Briefly, 5×10^4 MDA-MB-231 cells (ATCC, Manassas, VA, USA) were plated into tissue culture-treated black 96-well plates (Greiner Bio-One, Monroe, NC, USA) and cultured overnight. […] Upon reconstitution of the binary TF:FVIIa complex with a final concentration of 20 nM of FVIIa, cells were incubated for 5 min at 37° C.

The target in test [1] is T2, chimeric human-rat TF constructs expressed on HEK293 cells (Homo sapiens, UniProt P13726, K197R/S192D/S195T).
T2 construct: expressed in transfected cells; host or cells: HEK293
T2 sequence (P13726 33-251 S192D/S195T/K197R): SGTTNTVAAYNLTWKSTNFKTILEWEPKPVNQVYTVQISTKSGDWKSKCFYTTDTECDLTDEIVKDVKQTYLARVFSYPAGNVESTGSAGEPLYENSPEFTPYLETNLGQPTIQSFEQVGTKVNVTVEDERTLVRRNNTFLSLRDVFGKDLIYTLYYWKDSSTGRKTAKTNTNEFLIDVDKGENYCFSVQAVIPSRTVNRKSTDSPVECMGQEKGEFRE
As to the kind of experiment: Epitope binning, chimeric TF construct mapping (live cell staining assay). The format is binding. As to conditions: construct h159-166_r (3); human segment replaced by rat segment.

The target in test [2] is T3, chimeric human-rat TF constructs expressed on HEK293 cells (Homo sapiens, UniProt P13726, I184G/K181N/T186I/W190R/Y188T).
T3 construct: expressed in transfected cells; host or cells: HEK293
T3 sequence (P13726 33-251 K181N/I184G/T186I/Y188T/W190R): as the sequence (P13726 33-251 S192D/S195T/K197R) above, with K149N, I152G, T154I, Y156T, W158R, D160S, T163S, R165K counted along it
The test is described as above. As to conditions: construct h146-158_r (5); human segment replaced by rat segment. The class given is binding.

Test [3] addresses T4, human TF (TF-positive MDA-MB-231 cells) (Homo sapiens, UniProt P13726).
T4 construct: Human TF-positive cancer cell lines A431 and MDA-MB-231; host or cells: MDA-MB-231
Kind of test: Antibody competition assay with 25A3 on MDA-MB-231 cells. The settings on record: 20 nM 25A3-Alexa488. The class given is binding. Here is the method: (§1) Alexa Fluor antibodies were generated using Alexa Fluor 488 5-sulfo-[…] esters (ThermoFisher Scientific) following manufacturer's protocol. Excess Alexa Fluor dye was removed from the antibody dye conjugate preparations by gel filtration (ThermoFisher Scientific).
(§2) After another 1 hr incubation on ice, cells were washed, stained with a viability dye, and analyzed by flow cytometry. The Alexa488 fluorescence data from viable cells was summarized using median fluorescence intensity.

Test [4] addresses T4, human TF (TF-positive MDA-MB-231 cells). Kind of test: Antibody competition assay with 39A on MDA-MB-231 cells. The class given is binding. As to conditions: 20 nM 39A-Alexa488. On the procedure: as §1, §2
Test [5] has the same target. Kind of test: Antibody competition assay with 43D7 on MDA-MB-231 cells. The class given is binding. As to conditions: 20 nM 43D7-Alexa488. Here is the method:
as §1, §2

The subject of test [6] is thrombin generation (relipidated TF in normal pooled plasma). As to the kind of experiment: Thrombin generation assay (TGA) without antibody pre-incubation. The format is biochemical, human. As to conditions: Ab conc. 10 nM, Table 44. Here is the method: (§3) The TGA assay was performed using the calibrated-automated-thrombogram (CAT) instrument manufactured and distributed by STAGO. The test method design was equivalent to a standard CAT assay measurement, except that the plasma source was NPP in citrate/CTI. […] Relipidated TF was added to a 96-well assay plate, followed by addition of the antibody/NPP mixture. After a 10-min incubation or directly after combining the relipidated TF with antibody/NPP, thrombin generation was initiated by the addition of calcium and the thrombin substrate. The STAGO software was used to report the following parameters: Peak IIa (highest thrombin concentration generated [nM]); Lag Time (time to IIa generation [min]); ETP (endogenous thrombin potential, area under the curve [nM×min]); and ttPeak (time to Peak IIa [min]).
as §3, with “was normal pooled plasma (NPP)” for “was NPP”, “in citrate supplemented with corn trypsin inhibitor (citrate/CTI).” for “in citrate/CTI.”
TGA assay was performed using the calibrated-automated-thrombogram (CAT) instrument manufactured and distributed by STAGO (Diagnostica Stago SAS, Asnieres sur Seine, France). […] The anti-TF antibodies were titrated at 0, 10, 50 and 100 nM and mixed with NPP in citrate/CTI. Relipidated TF was added to a 96-well assay plate, followed by addition of the antibody/NPP mixture. After a 10-min incubation or directly after combining the relipidated TF with antibody/NPP, thrombin generation was initiated by the addition of calcium and the thrombin substrate. The STAGO software was used to report the following parameters: Peak IIa (highest thrombin concentration generated on the thrombin generation curve [nM]); Lag Time (time from assay start to the moment 10 nM of thrombin is formed [min]); ETP (endogenous thrombin potential, area under the curve [nM×min]); and ttPeak (time from assay start to Peak IIa [min]). […] As used herein, the term “thrombin generation assay” (TGA) refers to the TGA used in this example.

For test [7], the target named is T4, human TF (TF-positive MDA-MB-231 cells). As to the kind of experiment: FVIIa competition assay (FVII-Fc Alexa488) on MDA-MB-231 cells. The format is binding. The settings on record: highest concentration of antibody; Example 26.
Experimental: To evaluate competition between FVIJa and the human antibodies against TF, TF-positive MIDA-MB-231 cells (ATCC, Manassas, VA, USA) were first incubated for 1 hr on ice with a titration of the human antibodies against TF. Subsequently, a final concentration of 20 nM of FVII-Fc conjugated to Alexa488 was added to the antibody cell mixture. After another 1 hr incubation on ice, cells were washed, stained with a viability dye, and analyzed by flow cytometry. The Alexa488 fluorescence data from viable cells was summarized using median fluorescence intensity.
Subsequently, FVII-Fc conjugated to Alexa488 was added to the antibody-cell mixture at a final concentration of 20 nM. After another 1 hr incubation on ice, cells were washed, stained with a viability dye, and analyzed by flow cytometry. The Alexa488 fluorescence data from viable cells was summarized using median fluorescence intensity (MFI).

T4 sequence (P13726 33-295): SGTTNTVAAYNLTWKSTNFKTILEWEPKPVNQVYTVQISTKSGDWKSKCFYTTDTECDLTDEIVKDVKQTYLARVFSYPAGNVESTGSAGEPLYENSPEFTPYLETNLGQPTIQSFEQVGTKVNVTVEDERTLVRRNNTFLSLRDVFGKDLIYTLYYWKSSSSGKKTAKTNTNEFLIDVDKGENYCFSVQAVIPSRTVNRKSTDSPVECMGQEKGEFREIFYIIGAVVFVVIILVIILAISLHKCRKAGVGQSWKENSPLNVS
T1 sequence (P13726 33-295): as above

Take TF-011: the “inhibited FX conversion by” value in the test with TF:FVIIa is listed as 57-59%. Moreover, the “Antibody binding to TF construct” value was 1 (between 50% and 150%, the antibody was considered a binder (1)) in test [1]; 1 (between 50% and 150%, the antibody was considered a binder (1)) in test [2]. In test [3], the “% 25A3 binding” value is listed as “did not reduce”. In test [4], the “% 39A binding” value was “reduced”. Further, the “% 43D7 binding” value in test [5] is reported as “did not reduce”. The same substance gave an ETP in test [6] of 1714 nM·min. For the same substance, in test [7], the “competition with FVII” value was “effectively competed with FVII”.
